Tests used:
[1] = molecular target: T1, Upstream Binding Transcription Factor (UBF), recombinant, P17480; assay: SDS-PAGE without sample heating, with densitometry; details: remark: other sources report otherwise
T1 chain: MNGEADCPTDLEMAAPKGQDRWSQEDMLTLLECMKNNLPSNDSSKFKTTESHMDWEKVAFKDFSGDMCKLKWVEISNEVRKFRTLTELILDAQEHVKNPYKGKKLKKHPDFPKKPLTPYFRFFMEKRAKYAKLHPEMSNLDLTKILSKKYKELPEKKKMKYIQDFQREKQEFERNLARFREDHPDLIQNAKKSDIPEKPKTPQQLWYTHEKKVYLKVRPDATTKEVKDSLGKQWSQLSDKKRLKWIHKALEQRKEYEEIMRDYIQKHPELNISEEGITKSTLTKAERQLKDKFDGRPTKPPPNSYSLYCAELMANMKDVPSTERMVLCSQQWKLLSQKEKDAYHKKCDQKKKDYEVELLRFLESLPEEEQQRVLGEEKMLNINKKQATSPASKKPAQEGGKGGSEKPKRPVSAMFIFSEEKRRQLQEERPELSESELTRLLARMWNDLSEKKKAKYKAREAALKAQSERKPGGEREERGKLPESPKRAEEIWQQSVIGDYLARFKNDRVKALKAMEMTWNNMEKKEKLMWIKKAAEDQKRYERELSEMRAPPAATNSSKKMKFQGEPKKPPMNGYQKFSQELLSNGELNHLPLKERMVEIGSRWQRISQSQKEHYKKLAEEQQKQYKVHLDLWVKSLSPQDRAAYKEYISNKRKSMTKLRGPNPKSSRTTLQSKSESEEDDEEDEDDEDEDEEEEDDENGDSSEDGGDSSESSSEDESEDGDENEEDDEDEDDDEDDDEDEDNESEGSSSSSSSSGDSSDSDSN

[2] = molecular target: T1, Upstream Binding Transcription Factor …; assay: mass photometry; details: remark: other sources report otherwise

stoichiometry N [1]: 4
stoichiometry N [2]: 4
B1: Upstream Binding Transcription Factor (UBF), recombinant, P17480 1-764 (natural protein)
chain: T1 chain

Source: article doi:10.1101/2022.11.05.515292
